Substitutions are numbered along the chain they refer to. Names and notes keep the numbering of the source. Blank lines part the entries; values can stand above or below the binder they belong to. Where no end group is shown, it is not given here.
Tests used:
FBF-1 (164-566) [1] = biological target: T1, FBF-1 (164-566) (C. elegans, UniProt Q9N5M6 164-566); assay: pull-down
T1 sequence (looked up): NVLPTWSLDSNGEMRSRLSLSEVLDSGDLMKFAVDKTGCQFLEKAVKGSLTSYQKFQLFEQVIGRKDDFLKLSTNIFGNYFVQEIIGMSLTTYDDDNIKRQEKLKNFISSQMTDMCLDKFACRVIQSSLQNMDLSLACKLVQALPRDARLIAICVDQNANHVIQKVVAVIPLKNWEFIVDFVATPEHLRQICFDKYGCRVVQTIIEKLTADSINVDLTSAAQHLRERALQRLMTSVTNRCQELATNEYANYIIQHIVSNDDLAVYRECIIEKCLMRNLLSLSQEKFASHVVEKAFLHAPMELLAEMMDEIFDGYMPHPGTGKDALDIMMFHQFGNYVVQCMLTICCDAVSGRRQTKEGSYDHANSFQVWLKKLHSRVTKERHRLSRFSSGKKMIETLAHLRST

FBF-2 (164-566) [2] = biological target: T2, FBF-2 (164-566) (C. elegans, UniProt Q09312 164-566); assay: pull-down
T2 sequence (looked up): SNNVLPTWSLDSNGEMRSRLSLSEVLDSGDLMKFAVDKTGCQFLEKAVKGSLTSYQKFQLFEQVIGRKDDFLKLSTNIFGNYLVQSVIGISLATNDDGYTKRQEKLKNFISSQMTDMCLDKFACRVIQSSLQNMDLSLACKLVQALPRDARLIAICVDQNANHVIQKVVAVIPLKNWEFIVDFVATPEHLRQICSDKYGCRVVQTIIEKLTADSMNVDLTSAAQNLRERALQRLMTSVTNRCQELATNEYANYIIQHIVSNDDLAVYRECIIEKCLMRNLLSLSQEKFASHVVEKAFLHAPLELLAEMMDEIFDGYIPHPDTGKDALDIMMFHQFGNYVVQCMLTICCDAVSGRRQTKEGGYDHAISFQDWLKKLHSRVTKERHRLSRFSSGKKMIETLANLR

[3] = biological target: fluorescently labeled wild-type CPB-1(19-80) (C. elegans) (UniProt Q03571); assay: fluorescence polarisation
FBF-1 (164-566) [4] = biological target: T1, FBF-1 (164-566); assay: cross-linking
FBF-2 (164-566) [5] = biological target: T2, FBF-2 (164-566); assay: cross-linking
FBF-2 (164-575) [6] = biological target: T3, FBF-2 (164-575) (C. elegans, UniProt Q09312 164-575); assay: fluorescence polarisation
T3 sequence (looked up): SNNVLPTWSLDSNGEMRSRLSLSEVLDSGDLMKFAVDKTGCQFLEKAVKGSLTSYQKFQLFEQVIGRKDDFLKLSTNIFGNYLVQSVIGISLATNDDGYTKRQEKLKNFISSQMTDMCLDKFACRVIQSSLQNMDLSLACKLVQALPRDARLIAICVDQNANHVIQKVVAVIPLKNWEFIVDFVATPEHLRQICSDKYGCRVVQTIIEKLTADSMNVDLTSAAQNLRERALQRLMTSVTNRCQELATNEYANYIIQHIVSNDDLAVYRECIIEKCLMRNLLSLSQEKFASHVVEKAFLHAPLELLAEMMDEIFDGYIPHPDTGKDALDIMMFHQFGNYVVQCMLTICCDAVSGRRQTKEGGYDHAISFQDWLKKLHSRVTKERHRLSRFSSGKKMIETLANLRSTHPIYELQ

FBF-2 (164-575) [7] = biological target: T3, FBF-2 (164-575); assay: NMR, [15N,1H]-HSQC free against bound
FBF-2 (164-575) [8] = biological target: T4, FBF-2 (164-575) (Caenorhabditis elegans, UniProt Q09312 164-575); assay: EMSA
T4 sequence: T3 sequence (looked up)

[9] = biological target: T5, FBF-2 (164-575);MBP-CPB-1 (1-80) (Caenorhabditis elegans;Caenorhabditis …, UniProt Q09312;Q03571 164-575;1-80, |); assay: EMSA
T5 sequence 1: T3 sequence (looked up)
T5 sequence 2: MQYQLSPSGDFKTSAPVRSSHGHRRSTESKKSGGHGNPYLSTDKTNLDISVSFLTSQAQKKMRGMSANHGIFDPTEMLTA

Kd [3]: 1260 nM
B3: FBF-2 (164-575) T485A (domain or fragment)
chain: T3 sequence (looked up) with T322A

binding result (FBF-2 (164-575) [6]): binds
B7: CPB-1(19-80) L40A (domain or fragment, C. elegans, UniProt Q03571 19-80, looked up)
chain: SSHGHRRSTESKKSGGHGNPYASTDKTNLDISVSFLTSQAQKKMRGMSANHGIFDPTEMLTA

binding result (FBF-2 (164-575) [6]): binds
B11: CPB-1(19-80) T45A (domain or fragment, C. elegans, UniProt Q03571 19-80, looked up)
chain: B7 chain with A22L, T27A

binding result (FBF-2 (164-575) [7]): binds
Binder: SGGHGNPYLSTDKTNLDISVSFLTSQAQKKMRGMSANHGIFDPTEMLTA (domain or fragment, C. elegans, UniProt Q03571 32-80, looked up, also: 15N labeled) [15N-labeled CPB-1(32-80)]

Second part, the binder before the results:

Binder: SGGHGNPYLSTDKTNLDISVSFLTSQAQK (domain or fragment, C. elegans, UniProt Q03571 32-60, looked up) [CPB-1(32-60)]
binding result (FBF-1 (164-566) [1]): binds
binding result (FBF-2 (164-566) [2]): binds

B1: FBF-2 (164-575) (domain or fragment)
chain: T3 sequence (looked up)
Kd [3]: 49 nM

B2: FBF-2 (164-575) I480A (domain or fragment)
chain: T3 sequence (looked up) with I317A
Kd [3]: 778 nM

B4: FBF-2 (164-575) Y479A (domain or fragment)
chain: T3 sequence (looked up) with Y316A
fold increase in Kd relative to wild-type FBF [3]: > 60 fold

B5: CPB-1(1-80) (domain or fragment, C. elegans, UniProt Q03571 1-80, looked up)
chain: T5 sequence 2
stoichiometry N (FBF-1 (164-566) [4]): 1
stoichiometry N (FBF-2 (164-566) [5]): 1

B6: CPB-1(19-80) (domain or fragment, C. elegans, UniProt Q03571 19-80, looked up)
chain: B7 chain with A22L
IC50 (FBF-2 (164-575) [6]): 1150 ± 50 nM

B8: CPB-1(19-80) I49A (domain or fragment, C. elegans, UniProt Q03571 19-80, looked up)
chain: B7 chain with A22L, I31A
binding result (FBF-2 (164-575) [6]): binds

B9: CPB-1(19-80) K44A (domain or fragment, C. elegans, UniProt Q03571 19-80, looked up)
chain: B7 chain with A22L, K26A
binding result (FBF-2 (164-575) [6]): binds

B10: CPB-1(19-80) L47A (domain or fragment, C. elegans, UniProt Q03571 19-80, looked up)
chain: B7 chain with A22L, L29A
binding result (FBF-2 (164-575) [6]): binds

Binder: CGAAAUAAACAUUUUGUACCAUUCAGUC (ssRNA) [cyb-1 RNA]
Kd (FBF-2 (164-575) [8]): 24 nM
Kd [9]: 5.8 nM
